Data from patent US20180214548A1 (SHANGHAI YUNYI HEALTHCARE AND TECHNOLOGY, published 2018).

B1: chimeric anti-PD-1 antibody 76G5B3 (antibody, V domains shown)
VH: QVQLVESGGGVVQPGRSLRLSCAASGFTFSDYGFHWVRQAPGKGLEWVAVIWYDGSNEYYTDSVKGRFTISRDNSKNTLYLQMNSLRAEDTAMYFCVVNPFDYWGQGTLVTVSS
VL: DIQMTQSPSSLSAFVGDRVTITCRASQGINHYLAWYQQKPGKAPNLLILAASTLLSGVPSRFGGRGSGTDFTLIISSLQPEDVATYYCQKYDSAPYTFGQGTKLEIK
notes: Purified from hybridoma of Harbour H2L2 mice: human variable regions, rat constant regions
B2: chimeric anti-PD-1 antibody 21G8F11 (antibody, V domains shown)
VH: EVQLLESGGGLAQPGGSLRLSCAASGFSFNTYLMHWVRQAPGKGLEWVSAISGGGGNTYYADSVKGRFTISRDNSKNTLYLQMNSLRAEDTAVYYCAKENRIPVAPFDYWGQGTLVTVSS
VL: DIQMTQSPSTLSASVGDRVTITCRASQSISTWLAWYQQKPGKAPKLLIYKASSLESGVPSRFSGSGSGTEFTLTISSLQPDDLATYYCQQYNSFSWTFGQGTKVEIK
notes: as for B1

Experiments:
[1] = target: T1, full length human PD-1 on cells (human, UniProt Q15116 25-288); assay: cell-based receptor-ligand blocking, flow cytometry: CHO-K1-hPD-1 cells, blocked ligand biotinylated PD-L2-Fc, streptavidin-Alexa 488
T1 construct: Also used here for PD-1 on human T cells/PBMC; also called CHO-K1-hPD-1; hPD-1
Procedure: CHO-K1-hPD-1 cells were cultured and expanded in T-75 culture flasks to 60-80% confluence. The culture media was aspirated, and the cells were washed twice with PBS. The cells were treated with TrypLE™ Express (Invitrogen) and collected. Trypsin was neutralized by the addition of 8 mL culture medium, and cell counts were determined. […] The cells were blocked for 15 minutes at 37° C. Meanwhile, the wells of 96-well round-bottom plates were blocked with 200 uL blocking buffer for 1 hour at 37° C. The blocking buffer was discarded, and 200 uL cells were dispensed to each well of the 96-well plates (2×10^5 cells/well). The plates were centrifuged at 500 g for 5 minutes, and the supernatants were discarded. The cells were resuspended in 100 uL antibody prepared in blocking buffer. […] The plates were incubated at 4° C. for 90 minutes and washed twice with 200 uL blocking buffer. […] The plates were washed three times with blocking buffer and resuspended in 200 uL blocking buffer. The mean fluorescence intensity (MFI) was determined using FACS Calibur (BD).

[2] = target: T2, human PD-1^ECD-hFc protein (Immunogen A) (human, UniProt Q15116 25-167); assay: ELISA, coated human PD-1ECD-hFc; antibody 0.00001 nM
T2 construct: Biotinylated for the Octet assay; also called PD-1-hFc; hPD-1^ECD-hFc; not shown: human IgG Fc fragment (hFc)
Procedure: (§1) 100 uL of the diluted recombinant proteins were added to each well of 96-well plate. The plates were sealed with plastic film and incubated at 4° C. overnight. The plates were washed twice with wash buffer (PBS+0.01% (v/v) Tween20), and incubated with blocking buffer (PBS+0.01% (v/v) Tween20+1% (w/w) BSA) at room temperature for 2 hours. The blocking buffer was aspirated away, and 100 uL of purified anti-PD-1 antibodies were added to each well and incubated for 2 hours at 37° C. The plates were washed three times with wash buffer (PBS+0.01% (v/v) Tween20). HRP-conjugated secondary antibody (Sigma) was added to each well and incubated for 2 hours at 37° C. After the plates were washed three times with wash buffer, 100 uL TMB substrate was added to each well and incubated for 30 minutes at room temperature. 100 uL stop solution (0.1N HCl) was added to each well to stop the reaction. The absorbance at 450 nm was measured with an ELISA plate reader (384plus SpectraMax, Molecular Devices).

[3] = target: T2, human PD-1^ECD-hFc protein (Immunogen A); assay: ELISA, coated human PD-1ECD-hFc; antibody 0.001 nM
Procedure: as §1

[4] = target: T2, human PD-1^ECD-hFc protein (Immunogen A); assay: ELISA, coated human PD-1ECD-hFc; antibody 0.0001 nM
Procedure: as §1

T2 sequence (Q15116 25-167): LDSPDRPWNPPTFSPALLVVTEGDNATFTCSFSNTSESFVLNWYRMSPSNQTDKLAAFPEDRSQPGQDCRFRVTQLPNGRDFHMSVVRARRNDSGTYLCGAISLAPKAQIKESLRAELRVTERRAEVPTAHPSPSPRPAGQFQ
T1 sequence (Q15116 25-288 limits assumed): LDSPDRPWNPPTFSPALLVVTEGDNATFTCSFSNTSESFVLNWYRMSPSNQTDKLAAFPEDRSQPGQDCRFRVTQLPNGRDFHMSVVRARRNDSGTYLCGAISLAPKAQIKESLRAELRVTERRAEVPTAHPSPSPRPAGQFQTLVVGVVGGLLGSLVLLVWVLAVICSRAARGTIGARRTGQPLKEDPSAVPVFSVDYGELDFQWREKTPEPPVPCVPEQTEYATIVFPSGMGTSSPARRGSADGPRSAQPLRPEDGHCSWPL

Row | Binder | IC50 (read off the curve) [1] | OD450 nm [2] | OD450 nm [3] | OD450 nm [4]
1 | B1 | ~2 nM |  |  | 
2 | B2 |  | 0.405 | 0.468 | 0.433
